Substitutions are numbered along the chain they refer to. Names may count otherwise.

Our source for the binding result and Kd values is patent US20250282860A1 (SUZHOU FORLONG BIOTECHNOLOGY, published 2025).

To fix the notation:
T1: IL-2 receptor α (UniProt P01589 22-213, limits assumed)
T1 construct: BLI used Anti-human IgG Fc Capture (AHC) probes with the IL-2 mutant diluted as analyte; also called IL-2Rα; CD25
T1 sequence (looked up): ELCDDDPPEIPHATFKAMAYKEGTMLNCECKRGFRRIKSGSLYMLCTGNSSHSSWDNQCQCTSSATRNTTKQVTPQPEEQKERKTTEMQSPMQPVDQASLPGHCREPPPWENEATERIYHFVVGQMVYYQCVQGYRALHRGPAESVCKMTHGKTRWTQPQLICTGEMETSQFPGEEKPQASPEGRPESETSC

T2: IL-2 receptor β (UniProt P14784 27-239, limits assumed)
T2 construct: BLI used Anti-human IgG Fc Capture (AHC) probes with the IL-2 mutant diluted as analyte; also called IL-2Rβ; CD122
T2 sequence (looked up): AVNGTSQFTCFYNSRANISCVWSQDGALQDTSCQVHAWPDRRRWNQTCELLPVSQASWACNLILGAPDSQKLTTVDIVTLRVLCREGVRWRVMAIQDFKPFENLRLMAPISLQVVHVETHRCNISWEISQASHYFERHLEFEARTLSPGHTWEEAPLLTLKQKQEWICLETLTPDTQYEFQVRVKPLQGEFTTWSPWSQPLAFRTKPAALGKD

B1: IL-2 mutant 21-C1 (ligand)
chain: APTSSSTKKTQLQLEHLLLDLQMILNGINNYKNPLLTDMLTLHFYMPKKATELKHLQCLEEELKPLEEVLNFAQSKNFHLRPRDLISNINVIVLELKGSETTFMCEYADETATIVEFLNRWITFCQSIISTLT
notes: Expressed in Expi293; also called 1.21-C1
B2: IL-2 mutant 24-C6 (ligand)
chain: B1 chain with L35E, D38E, L42F, H43K, F72A
notes: Expressed in Expi293; also called 12.24-C6
B3: IL-2 mutant 24-E4 (ligand)
chain: B1 chain with L35D, L42F, H43K, F72A
notes: Expressed in Expi293; also called 14.24-E4
B4: IL-2 mutant 24-C2 (ligand)
chain: B1 chain with L35D, D38E, L42F, H43K, F72S
notes: Expressed in Expi293; also called 11.24-C2
B5: IL-2 mutant 21-F10 (ligand)
chain: B1 chain with L35E, L42F, H43K, F72A
notes: Expressed in Expi293; also called 3.21-F10
B6: IL-2 mutant 23-C8 (ligand)
chain: B1 chain with L35G, L42F, H43N
notes: Expressed in Expi293; also called 9.23-C8
B7: IL-2 mutant 22-A4 (ligand)
chain: B1 chain with L35G, L42I, H43Q, Y45F
notes: Expressed in Expi293; also called 4.22-A4
B8: IL-2 mutant 22-E8 (ligand)
chain: B1 chain with L35D, D38E, L42F, H43K, F72Q
notes: Expressed in Expi293; also called 7.22-E8
B9: IL-2 mutant 21-F9 (ligand)
chain: B1 chain with L35M, L42V, H43G, Y45F
notes: Expressed in Expi293; also called 2.21-F9
B10: IL-2 mutant 22-B2 (ligand)
chain: B1 chain with L35S, H43Q
notes: Expressed in Expi293; also called 5.22-B2
B11: IL-2 mutant 22-D11 (ligand)
chain: B1 chain with L35D, H43R, Y45F
notes: Expressed in Expi293; also called 6.22-D11
B12: IL-2 mutant 24-D2 (ligand)
chain: B1 chain with L35E, L42F, H43K, F72G
notes: Expressed in Expi293; also called 13.24-D2
B13: IL-2 mutant 23-H9 (ligand)
chain: B1 chain with L35G, L42Y, H43S, Y45D, F72L
notes: Expressed in Expi293; also called 10.23-H9
B14: IL-2 mutant 24-D2-C125A (ligand)
chain: B1 chain with L35E, L42F, H43K, F72G, C125A
B15: IL-2 mutant 22-E8-C125A (ligand)
chain: B1 chain with L35D, D38E, L42F, H43K, F72Q, C125A
B16: IL-2 mutant 24-E4-C125A (ligand)
chain: B1 chain with L35D, L42F, H43K, F72A, C125A
B17: IL-2 mutant 24-C2-C125A (ligand)
chain: B1 chain with L35D, D38E, L42F, H43K, F72S, C125A
B18: IL-2 mutant 23-C8-C125A (ligand)
chain: B1 chain with L35G, L42F, H43N, C125A
B19: IL-2 mutant 21-F10-C125A (ligand)
chain: B1 chain with L35E, L42F, H43K, F72A, C125A

One assay addresses T1, IL-2 receptor α. Kind of assay: BLI, AHC probes.
With B1, the binding result was “no binding (tested: 100 nM highest concentration)”. On the same count and under the same terms, with B2 the entry was “no binding (tested: 100 nM highest concentration)”; with B3, “no binding (tested: 100 nM highest concentration)”; with B4, “no binding (tested: 100 nM highest concentration)”. On the same count and under the same terms, with B5 the entry was “no binding (tested: 100 nM highest concentration)”. On the same count and under the same terms, the same measure for B6: “no binding (tested: 100 nM highest concentration)”. For B7, the binding result was “no binding (tested: 100 nM highest concentration)”.

Consider B8, for which the binding result is recorded as “no binding (tested: 100 nM highest concentration)”. Same read-out and setting: with B9 the entry was “no binding (tested: 100 nM highest concentration)”; with B10, “no binding (tested: 100 nM highest concentration)”; with B11, “no binding (tested: 100 nM highest concentration)”.

For the molecule B12, the binding result was “no binding (tested: 100 nM highest concentration)”.

In the case of B13, the binding result is “no binding (tested: 100 nM highest concentration)”.

The target of a further assay is T2, IL-2 receptor β. As to the kind of experiment: BLI, AHC probes, IL-2 diluted 3-fold from 1000 nM to 12.35 nM.
The Kd is the free concentration of one partner at which half of the binding sites on the other are occupied at equilibrium, for simple one-to-one binding. The low end stands for a tighter complex, the high end for a looser complex. For B9, the affinity, expressed as Kd, was 50 nM. This lies in the double-digit nanomolar range.

A further assay concerns the target T1, IL-2 receptor α. Kind of assay: BLI with AHC probes; C125A protein in 3-fold dilutions from 100 nM to 1.23 nM.
Regarding B14, the binding result was “no binding (tested: 100 nM)”. In the case of B15, the binding result is “no binding (tested: 100 nM)”. As for B16, the binding result is reported as “no binding (tested: 100 nM)”. On the same count and under the same terms, with B17 the entry was “no binding (tested: 100 nM)”; with B18, “no binding (tested: 100 nM)”. Same read-out and setting: with B19 the entry was “no binding (tested: 100 nM)”.
